Reference: US6905849B1, “Process for preparing clavam derivatives by using polypeptides having β-lactam synthetase activity” (SmithKline Beecham plc, priority 1998, dated 2005)

Assay: Assay for conversion of compound (III) to compound (IV) by protein extracts, HPLC detection
Type: biochemical, Streptomyces clavuligerus
Settings: recombinant orf3 protein from E. coli BL21(DE3)/pBLS3; ATP, Mg(AcO)2, MOPS pH 7.4; 37 °C, 15 minutes; underivatised and benzoin-derivatised HPLC
Description: The crude extracts prepared from the recombinant E. coli containing the pBLS3vector (example 5) and the purified protein product (example 6) were tested for the ability to catalyse the conversion of the compound (III) to compound (IV). Both compound (III) and compound (IV) were prepared synthetically following previously published methods (Baldwin et al J. Chem Soc. Chem Comm. 1993 p500-2 and Elson et al J. Chem Soc. Chem Comm. 1993 p1212-4). Protein extracts were assayed for the conversion of compound (III) to compound (IV) under the following conditions: [table] The above mixture was heated at 37 ° C. for 15 minutes before being analysed by the HPLC methods described below. This assay was carried out using the following equipment and conditions • Waters 746 data module • Waters 600E system controller • Waters 712 WISP injector • Waters 848 tunable absorbance detector The protocol used was Kai et al. (M. Kai, T. Miyazaki, M. Yamaguchi, Y Ohkura, J. Chromatog. 268, 417-424, 1983) which assays for compounds containing guanidino functionalities using a fluorescence detector. […]

B1: orf3 product: polypeptide encoded by orf3 of the Streptomyces clavuligerus clavulanic acid gene cluster (SEQ ID NO:2), 56 KDa, β-lactam synthetase (protein, listed as Streptomyces clavuligerus)
chain: GAPVLPAAFGFLASARTGGGRAPGPVFATRGSHTDIDTPQGERSLAATLVHAPSVAPDRAVARSLTGAPTTAVLAGEIYNRDELLSVLPAGPAPEGDAELVLRLLERYDLHAFRLVNGRFATVVRTGDRVLLATDHAGSVPLYTCVAPGEVRASTEAKALAAHRDPKGFPLADARRVAGLTGVYQVPAGAVMDIDLGSGTAVTHRTWTPGLSRRILPEGEAVAAVRAALEKAVAQRVTPGDTPLVVLSGGIDSSGVAACAHRAAGELDTVSMGTDTSNEFREARAVVDHLRTRHREITIPTTELLAQLPYAVWASESVDPDIIEYLLPLTALYRALDGPERRILTGYGADIPLGGMHREDRLPALDTVLAHDMATFDGLNEMSPVLSTLAGHWTTHPYWDREVLDLLVSLEAGLKRRHGRDKWVLRAAMADALPAETVNRPKLGVHEGSGTTSSFSRLLLDHGVAEDRVHEAKRQVVRELFDLTVGGGRHPSEVDTDDVVRSVADRTARGAA
- β-lactam synthetase activity: conversion of compound (III) to compound (IV): catalysis the conversion of compound (III) to compound (IV)
